In US20140356358A1 (Amgen, published 2014):
Blank lines part the entries; values can stand above or below the binder they belong to.

Legend:
[1] = molecular target: T1, human neonatal Fc receptor (hFcRn) (human, UniProt P55899 24-290; P61769 21-119); assay: BLI (Octet), association pH 6, dissociation pH 7.4
T1 construct: Biotinylated in the ELISA, Octet and yeast assays; also called human FcRn; huFcRn
Source text: To further characterize some of the variant Fc-fragments identified by the phage ELISA, binding of the variant Fc-fragments to FcRn at pH 6 and 7.4 was characterized for a subset of the identified variant Fc-fragments. DNA encoding selected variant Fc-fragment isolates, all from library L5, was introduced into a mammalian expression vector, which was used to transfect 293 6E cells using deacylated PEI essentially as described by Thomas et al. (Proc. Natl. Acad. Sci. 102(16): 5679-5684, 2005), the relevant portions of which are incorporated herein by reference. […] Concentrations were calculated using a standard curve created with a purified Fc fusion protein.
Biotinylated hFcRn at 100 nM was captured on streptavidin (SA) biosensors (ForteBio Inc., 18-5019) off-line at RT for 2 hours. Using these biotinylated hFcRn-coated SA biosensors in the Octet Red® system, association and dissociation of unlabeled proteins can be detected in real time via […] of light. […] Three association and dissociation conditions were set up: (1) association at pH 6 and dissociation at pH 6; (2) association at pH 6 and dissociation at pH 7.4; and (3) association at pH 7.4 and dissociation at pH 7.4. SA biosensors coated with biotinylated hFcRN were dipped into buffer at a specific pH for 1 min and then soaked in the samples containing variant Fc-fragments or controls at a specific pH for 5 min to allow binding to FcRn. The Fc biosensors were then soaked in buffer at a specific pH for 5 minutes more to allow the bound Fc-fragments to dissociate from FcRn. Detection of binding and dissociation of the Fc-fragments was possible through the use of bio-layer interferometry as implemented using the Octet Red® system, so that binding and dissociation were detected in real time.

[2] = molecular target: T1, human neonatal Fc receptor (hFcRn); assay: SPR competition pH 5.5
Method: (§1) Binding of variant Fc-fragments to human and cynomolgus monkey FcRn was tested using a BIAcore® T100 analysis system (GE Healthcare Bio-Sciences AB Private Limited Liability Company, Uppsala, Sweden) at both pH 5.5 and pH 7.4. The test consisted of incubating various concentrations of the variant Fc-fragments or control Fc-fragments with a fixed amount of human or cynomolgus monkey FcRn under binding conditions and subsequently measuring the amount of free, unbound FcRn in these mixtures by binding to a surface (in a flow cell of a CM5 (Biacore) chip) on which an Fc-fragment was immobilized. […] Thus, the amount of unbound FcRn in the mixture was quantitatively ascertained by surface plasmon resonance through use of the BIAcore® T100 analysis system. […] Initially, a group of 23 variant-Fc-fragments (Fc-5-1 being considered a control) identified in the experiments described above were tested for binding to human FcRn.
(§2) To obtain a reasonable signal for the different molecules and conditions tested, different assay conditions were used. For assays at pH 5.5, 10 nM of human or cynomolgus monkey FcRn was mixed with serial dilutions of the variant and control Fc-fragments being tested (which ranged from 0.1˜2,000 nM) and incubated for 1 hour at room temperature in 10 mM sodium acetate, pH 5.5, 150 mM NaCl, 0.005% P20, 0.1 mg/mL BSA. As positive controls, […] human and cynomolgus monkey FcRn were each incubated in the same solution, for the same time, and at the same temperature described immediately above, but without an added Fc-fragment.

cynomolgus monkey FcRn [3] = molecular target: T2, cynomolgus monkey FcRn (cynomolgus monkey, UniProt Q8SPV9 24-297; Q8SPW0 21-119, limits assumed); assay: SPR competition pH 5.5
T2 construct: also called Cynomolgus FcRn
Method: as §1, §2

[4] = molecular target: T1, human neonatal Fc receptor (hFcRn); assay: SPR competition pH 7.4
Method: as §1
(§3) As positive controls, 10 mM human and cynomolgus monkey FcRn were each incubated in the same solution, for the same time, and at the same temperature described immediately above, but without an added Fc-fragment.

cynomolgus monkey FcRn [5] = molecular target: T2, cynomolgus monkey FcRn; assay: SPR competition pH 7.4
Method: as §1, §3

[6] = molecular target: T1, human neonatal Fc receptor (hFcRn); assay: SPR competition pH 5.5; remark: listed apart in the source
cynomolgus monkey FcRn [7] = molecular target: T2, cynomolgus monkey FcRn; assay: SPR competition pH 5.5; remark: listed apart in the source
cynomolgus monkey FcRn [8] = molecular target: T2, cynomolgus monkey FcRn; assay: SPR competition pH 7.4; remark: listed apart in the source
[9] = molecular target: T1, human neonatal Fc receptor (hFcRn); assay: SPR competition pH 7.4; remark: listed apart in the source

T2 sequence (Q8SPV9 24-297 limits assumed, chain 1 of 2): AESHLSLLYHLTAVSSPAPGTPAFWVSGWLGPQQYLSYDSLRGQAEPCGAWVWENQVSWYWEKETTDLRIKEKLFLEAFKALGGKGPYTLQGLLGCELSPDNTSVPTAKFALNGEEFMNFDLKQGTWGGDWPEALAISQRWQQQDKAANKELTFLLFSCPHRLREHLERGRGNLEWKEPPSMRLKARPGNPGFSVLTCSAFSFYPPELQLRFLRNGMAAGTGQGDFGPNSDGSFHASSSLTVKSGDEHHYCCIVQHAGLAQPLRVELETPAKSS
T2 sequence (Q8SPW0 21-119 limits assumed, chain 2 of 2): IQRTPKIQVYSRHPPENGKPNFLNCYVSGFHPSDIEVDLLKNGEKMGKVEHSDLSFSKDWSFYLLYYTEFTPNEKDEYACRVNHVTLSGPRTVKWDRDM

B1: variant Fc-fragment 5-1-8 (other)
chain: EPKSCDKTHTCPPCPAPELLGGPSVFLFPPKPKDTLMISRTPEVTCVVVDVSHEDPEVKFNWYVDGVEVHNAKTKPREEQYNSTYRVVSVLTVLHQDWLNGKEYKCKVSNKALPAPIEKTISKAKGQPREPQVYTLPPSRDELTKNQVSLTCLVKGFYPSDIAVEWESNGQPENNGGCGMPIEFCGGYKTTPPVLDSDGSFFLYSKLTVDKSRWQQGNVFSCSVMHEALHNHYTQKSLSLSPGK
binding result [1]: binds

B2: variant Fc-fragment 5-1-7 (other)
chain: EPKSCDKTHTCPPCPAPELLGGPSVFLFPPKPKDTLMISRTPEVTCVVVDVSHEDPEVKFNWYVDGVEVHNAKTKPREEQYNSTYRVVSVLTVLHQDWLNGKEYKCKVSNKALPAPIEKTISKAKGQPREPQVYTLPPSRDELTKNQVSLTCLVKGFYPSDIAVEWESNGQPENGGCGMPIEFCGGNYKTTPPVLDSDGSFFLYSKLTVDKSRWQQGNVFSCSVMHEALHNHYTQKSLSLSPGK
binding result [1]: binds

B3: variant Fc-fragment Fc-5-1 (other)
chain: EPKSCDKTHTCPPCPAPELLGGPSVFLFPPKPKDTLMISRTPEVTCVVVDVSHEDPEVKFNWYVDGVEVHNAKTKPREEQYNSTYRVVSVLTVLHQDWLNGKEYKCKVSNKALPAPIEKTISKAKGQPREPQVYTLPPSRDELTKNQVSLTCLVKGFYPSDIAVEWESNGGCGMPIEFCGGGQPENNYKTTPPVLDSDGSFFLYSKLTVDKSRWQQGNVFSCSVMHEALHNHYTQKSLSLSPGK
notes: library L5 isolate; also called variant 5-1
EC50 [2]: 2.6 nM
EC50 (cynomolgus monkey FcRn [3]): 2.3 nM
EC50 [4]: 45 nM
EC50 (cynomolgus monkey FcRn [5]): 42 nM

B4: variant Fc-fragment Fc-5-106-M4I (other)
chain: EPKSCDKTHTCPPCPAPELLGGPSVFLFPPKPKDTLMISRTPEVTCVVVDVSHEDPEVKFNWYVDGVEVHNAKTKPREEQYNSTYRVVSVLTVLHQDWLNGKEYKCKVSNKALPAPIEKTISKAKGQPREPQVYTLPPSRDELTKNQVSLTCLVKGFYPSDIAVEWESNGGCVFNIFNCGGGQPENNYKTTPPVLDSDGSFFLYSKLTVDKSRWQQGNVFSCSVMHEALHNHYTQKSLSLSPGK
EC50 [6]: 2.6 nM
EC50 (cynomolgus monkey FcRn [7]): 3.2 nM
EC50 (cynomolgus monkey FcRn [8]): 970 nM

B8: variant Fc-fragment Fc-5-106 (other)
chain: EPKSCDKTHTCPPCPAPELLGGPSVFLFPPKPKDTLMISRTPEVTCVVVDVSHEDPEVKFNWYVDGVEVHNAKTKPREEQYNSTYRVVSVLTVLHQDWLNGKEYKCKVSNKALPAPIEKTISKAKGQPREPQVYTLPPSRDELTKNQVSLTCLVKGFYPSDIAVEWESNGGCVFNMFNCGGGQPENNYKTTPPVLDSDGSFFLYSKLTVDKSRWQQGNVFSCSVMHEALHNHYTQKSLSLSPGK
notes: soluble elsewhere
EC50 [2]: 5.3 nM
EC50 (cynomolgus monkey FcRn [3]): 3.6 nM
EC50 [6]: 5.4 nM
EC50 (cynomolgus monkey FcRn [7]): 4.6 nM

The next lines start with the values.

EC50 [6]: 10 nM
EC50 (cynomolgus monkey FcRn [7]): 8.3 nM
B5: variant Fc-fragment Fc-5-106-M4T (other)
chain: EPKSCDKTHTCPPCPAPELLGGPSVFLFPPKPKDTLMISRTPEVTCVVVDVSHEDPEVKFNWYVDGVEVHNAKTKPREEQYNSTYRVVSVLTVLHQDWLNGKEYKCKVSNKALPAPIEKTISKAKGQPREPQVYTLPPSRDELTKNQVSLTCLVKGFYPSDIAVEWESNGGCVFNTFNCGGGQPENNYKTTPPVLDSDGSFFLYSKLTVDKSRWQQGNVFSCSVMHEALHNHYTQKSLSLSPGK

EC50 [6]: 2.3 nM
EC50 (cynomolgus monkey FcRn [7]): 2.8 nM
EC50 [9]: 650 nM
EC50 (cynomolgus monkey FcRn [8]): 710 nM
B6: variant Fc-fragment Fc-5-106-M4L (other)
chain: EPKSCDKTHTCPPCPAPELLGGPSVFLFPPKPKDTLMISRTPEVTCVVVDVSHEDPEVKFNWYVDGVEVHNAKTKPREEQYNSTYRVVSVLTVLHQDWLNGKEYKCKVSNKALPAPIEKTISKAKGQPREPQVYTLPPSRDELTKNQVSLTCLVKGFYPSDIAVEWESNGGCVFNLFNCGGGQPENNYKTTPPVLDSDGSFFLYSKLTVDKSRWQQGNVFSCSVMHEALHNHYTQKSLSLSPGK

EC50 [6]: 6.2 nM
EC50 (cynomolgus monkey FcRn [7]): 5 nM
B7: variant Fc-fragment Fc-5-106-M4V (other)
chain: EPKSCDKTHTCPPCPAPELLGGPSVFLFPPKPKDTLMISRTPEVTCVVVDVSHEDPEVKFNWYVDGVEVHNAKTKPREEQYNSTYRVVSVLTVLHQDWLNGKEYKCKVSNKALPAPIEKTISKAKGQPREPQVYTLPPSRDELTKNQVSLTCLVKGFYPSDIAVEWESNGGCVFNVFNCGGGQPENNYKTTPPVLDSDGSFFLYSKLTVDKSRWQQGNVFSCSVMHEALHNHYTQKSLSLSPGK
